Assays:
[1] = biological target: D3H44 Fab heavy chain L124R_S186K, C-terminal ABD2-His6 tag; assay: LCCA set 9488 (co-expression; SPR read-out of light-chain tags; L1:L2 DNA 1:3, normalized to 1:1); competing light chain m9
[2] = biological target: D3H44 Fab heavy chain L124E_L143E_K145T, C-terminal ABD2-His6 tag; assay: LCCA set 9320 (co-expression; SPR read-out of light-chain tags; L1:L2 DNA 1:3, normalized to 1:1); competing light chain m9
[3] = biological target: D3H44 Fab heavy chain L124E_L143E_K145T, C-terminal ABD2-His6 tag; assay: LCCA co-expression, SPR tag read-out; DNA 1:3 norm. to 1:1; competing light chain m7
[4] = biological target: D3H44 Fab heavy chain L124R_Q179K, C-terminal ABD2-His6 tag; assay: as above
[5] = biological target: D3H44 Fab heavy chain L124R_S186R, C-terminal ABD2-His6 tag; assay: LCCA set 9544 (co-expression; SPR read-out of light-chain tags; L1:L2 DNA 1:3, normalized to 1:1); competing light chain m13
[6] = biological target: D3H44 Fab heavy chain L124R_S186R, C-terminal ABD2-His6 tag; assay: LCCA (co-expression, SPR read-out of light chain tags), L1:L2 DNA 1:3 normalised to 1:1; competitor m8
[7] = biological target: D3H44 Fab heavy chain L124E_L143E_K145T, C-terminal ABD2-His6 tag; assay: as above
[8] = biological target: D3H44 Fab heavy chain L124R_S186K, C-terminal ABD2-His6 tag; assay: as above
[9] = biological target: D3H44 Fab heavy chain L124E_L143D_K145M, C-terminal ABD2-His6 tag; assay: LCCA set 9202 (co-expression; SPR read-out of light-chain tags; L1:L2 DNA 1:3, normalized to 1:1); competing light chain m13
[10] = biological target: D3H44 Fab heavy chain L124R_S186R, C-terminal ABD2-His6 tag; assay: LCCA co-expression, SPR tag read-out; DNA 1:3 norm. to 1:1; competing light chain m8
[11] = biological target: D3H44 Fab heavy chain L124E_L143E_K145T, C-terminal ABD2-His6 tag; assay: as above
[12] = biological target: D3H44 Fab heavy chain L124R_Q179K, C-terminal ABD2-His6 tag; assay: as above
[13] = biological target: D3H44 Fab heavy chain L124E_L143D_K145T, C-terminal ABD2-His6 tag; assay: LCCA set 9240 (co-expression; SPR read-out of light-chain tags; L1:L2 DNA 1:3, normalized to 1:1); competing light chain m13

## D3H44 light chain V133G_S176D_T178E_T180E, N-terminal HA or FLAG tag
[1]
  H2L2:H2L1 normalized median ratio (H2L2 part): 91%
[2]
  H1L1:H1L2 normalized median ratio (H1L2 part): 14%
[3]
  H1L1:H1L2 normalized median ratio (% (ratio normalized to 100)): 6
[4]
  H2L2:H2L1 normalized median ratio (% (ratio normalized to 100)): 90
[5]
  H2L2:H2L1 normalized median ratio (H2L2 part): 92%
[6]
  H2L2:H2L1 normalized median ratio: 94%
[7]
  H1L1:H1L2 normalized median ratio: 13%
[8]
  H2L2:H2L1 normalized median ratio: 93%
[9]
  H1L1:H1L2 normalized median ratio (H1L2 part): 16%
[10]
  H2L2:H2L1 normalized median ratio (% (ratio normalized to 100)): 91
[11]
  H1L1:H1L2 normalized median ratio (% (ratio normalized to 100)): 5
[12]
  H2L2:H2L1 normalized median ratio (% (ratio normalized to 100)): 90
[13]
  H1L1:H1L2 normalized median ratio (H1L2 part): 13%

Source: patent US11306156
